In patent US20230192897A1 (NUMAB THERAPEUTICS, published 2023):

Tests used:
Fc tagged human CD137 = molecular target: T1, Fc tagged human CD137 (human, UniProt Q07011 24-186); assay: SPR
T1 construct: also called CD137-Fc chimeric protein
Summary of the method: (§1)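 Kinetics were fitted with a one-to-one Langmuir model to give apparent ka, kd and KD. Binders at 0.12-90 nM (three-fold series) flowed 3 min, with 10 min dissociation and 3 M MgCl₂ regeneration, on a Biacore T200.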

[1] = molecular target: cynomolgus CD137-Fc chimeric protein (cynomolgus monkey, UniProt A9YYE7 24-186); assay: SPR
Summary of the method: as §1

[2] = molecular target: T2, cynomolgus PDL1-Fc chimeric protein (cynomolgus monkey, UniProt G7PSE7 19-239); assay: SPR
T2 construct: PDL1-Fc chimeric protein from different species captured on the chip
Summary of the method: as §1

Fc tagged human PDL1 = molecular target: T3, Fc tagged human PDL1 (human, UniProt Q9NZQ7 19-239); assay: SPR
T3 construct: Bought (Sino Biological, cat. 10084-H02H); captured on the SPR chip; also called PDL1-Fc chimeric protein
Summary of the method: as §1

human PDL1 on cells = human PDL1 on cells (human, UniProt Q9NZQ7 19-290); assay: cell-based or functional assay
human serum albumin = molecular target: T4, human serum albumin (human, UniProt P02768 25-609); assay: SPR, SA coupled to chip, pH 5.5
T4 construct: Coupled directly to the CM5 chip; also called HSA; human SA
Description: Affinity of molecules to serum albumin (SA) of the different species was determined by SPR measurements using a Biacore T200 device (GE Healthcare). SA was directly coupled to a CM5 sensor chip (GE Healthcare) using amine coupling chemistry. […] The assay was run in a 1× PBS-Tween buffer at pH 5.5.

[3] = molecular target: T5, CD137 on Jurkat NFkB reporter cells (human, UniProt Q07011 24-255); assay: cell-based or functional assay
biotinylated human PDL1 [4] = molecular target: T6, biotinylated human PDL1 (human, UniProt Q9NZQ7 19-238, limits assumed, biotinylated); assay: competition ELISA PD-1/PDL1
T6 construct: also called biotinylated PDL1

biotinylated human PDL1 [5] = molecular target: T6, biotinylated human PDL1; assay: competition ELISA B7.1/PDL1
Summary of the method: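 IC₅₀ was derived by four-parameter logistic fitting of reference-subtracted A450/690 readings. The signal came from streptavidin-polyHRP40 (10 ng/ml) with a 6-minute TMB reaction detecting biotinylated PDL1 bound to the plate. Pre-mixed samples sat 1 h at RT before a 1.5 h plate incubation.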

[6] = molecular target: T5, CD137 on Jurkat NFkB reporter cells; assay: cell-based or functional assay; remark: listed apart in the source

B1: PRO1480 (other)
chain: DIQMTQSPASLSASVGDRVTITCQASQSIGTYLAWYQQKPGKPPKLLIYRAFILASGVPSRFSGSGSGTDFTLTISSLQPEDFATYYCQSNFYSDSTTIGPNAFGTGTKVTVLGGGGGSEVQLVESGGGLVQPGGSLRLSCAASGFSFSANYYPCWVRQAPGKGLEWIGCIYGGSSDITYDANWTKGRFTISRDNSKNTVYLQMNSLRAEDTAVYYCARSAWYSGWGGDLWGQGTLVTVSSGGGGSGGGGSGGGGSGGGGSIQMTQSPSSLSASVGDRVTITCQASQSISNRLAWYQQKPGKAPKLLIYSASTLASGVPSRFSGSGSGTDFTLTISSLQPEDFATYYCQSTYYGNDGNAFGTGTKVTVLGGGGGSEVQLVESGGGLVQPGGSLRLSCAASGFSFNSDYWIYWVRQAPGKGLEWIASIYGGSSGNTQYASWAQGRFTISRDNSKNTVYLQMNSLRAEDTAVYFCARGYVDYGGATDLWGQGTLVTVSSGGGGSGGGGSIQMTQSPSSLSASVGDRVTITCQSSESVYSNNQLSWYQQKPGQPPKLLIYDASDLASGVPSRFSGSGSGTDFTLTISSLQPEDFATYYCAGGFSSSSDTAFGGGTKLTVLGGGGGSGGGGSGGGGSGGGGSEVQLVESGGGLVQPGGSLRLSCAASGFSLSSNAMGWVRQAPGKGLEYIGIISVGGFTYYASWAKGRFTISRDNSKNTVYLQMNSLRAEDTATYFCARDRHGGDSSGAFYLWGQGTLVTVSS
notes: trispecific scDb-scFv; also called 38-27-A11 sc02 scDb-i/37-20-B03 sc09.1 scDb-o/19-01-H04 sc03 scFv
What does the source list for B1?
Kd (Fc tagged human CD137): 0.37 nM; koff (Fc tagged human CD137): 0.00022 s⁻¹; kon (Fc tagged human CD137): 580000 M⁻¹ s⁻¹; Kd [1]: 0.47 nM; koff [1]: 0.0003 s⁻¹; kon [1]: 640000 M⁻¹ s⁻¹; Kd [2]: 0.0085 nM; koff [2]: 3.4e-05 s⁻¹; kon [2]: 4e+06 M⁻¹ s⁻¹; kon (Fc tagged human PDL1): 3.5e+06 M⁻¹ s⁻¹; IC50 (ng/ml), NF-AT potency assay, +HSA (human PDL1 on cells): 84.8 ng/mL; rel. IC50 (avelumab/test), +HSA (human PDL1 on cells): 0.61 fold; kon (human serum albumin): 327000 M⁻¹ s⁻¹; Area under the curve (calculated using PRO885 normalized data), first line (6 h by the order of the upper part) [3]: 232; Area under the curve (calculated using PRO885 normalized data), second line (24 h by the order of the upper part) [3]: 261; EC50 [ng/ml], NF-kB reporter, HCC827 + IFNg, +HSA, 6 h [3]: 6.44 ng/mL; IC10/EC90 ratio, first line (6 h by the order of the upper part) [3]: 43; IC10/EC90 ratio, second line (24 h by the order of the upper part) [3]: 360; Maximum NF-kB activation (rel. to PRO1186) [%], first line (6 h by the order of the upper part) [3]: 114%; Maximum NF-kB activation (rel. to PRO1186) [%], second line (24 h by the order of the upper part) [3]: 121%; rel. Area under the curve (AUCsample/AUCPRO1186), first line (6 h by the order of the upper part) [3]: 1.2 fold; rel. Area under the curve (AUCsample/AUCPRO1186), second line (24 h by the order of the upper part) [3]: 1.29 fold; rel. EC50 (EC50, PRO1186/EC50, sample), NF-kB reporter, 6 h [3]: 1.93 fold; rel. EC50 (EC50, PRO1186/EC50, sample), NF-kB reporter, 24 h [3]: 1 fold; rel. IC10/EC90 (ratio of sample/ratio of PRO1186), first line (6 h by the order of the upper part) [3]: 0.54 fold; rel. IC10/EC90 (ratio of sample/ratio of PRO1186), second line (24 h by the order of the upper part) [3]: 1.86 fold; IC50 (biotinylated human PDL1 [4]): 2.27 ng/mL; rel. IC50 (IC50 avelumab/IC50 test) (biotinylated human PDL1 [4]): 1 fold; IC50 (biotinylated human PDL1 [5]): 11.2 ng/mL; rel. IC50 (IC50 avelumab/IC50 test) (biotinylated human PDL1 [5]): 1.32 fold; IC50 (ng/ml) (EC50 in Table 16C), NFkB reporter, HCC827 + IFNg, 24 h, +HSA [6]: 4.67 ng/mL; rel. IC50 (PRO1186/test), 24 h [6]: 1 fold

B2: PRO1013 (scFv)
scFv: DIQMTQSPSSLSASVGDRVTITCQASQSIGTYLAWYQQKPGKAPKLLIYRAFILASGVPSRFSGSGSGTDFTLTISSLQPEDFATYYCQSNFYSDSTTIGPNAFGTGTKVTVLGGGGGSGGGGSGGGGSGGGGSQVQLVQSGAEVKKPGASVKVSCKASGFSFNSDYWIYWVRQAPGQGLEWMGSIYGGSSGNTQYASWAQGRVTMTRDTSISTAYMELSSLRSEDTAVYYCARGYVDYGGATDLWGQGTLVTVSS
notes: anti-PDL1 scFv; also called 37-20-B03 sc02 scFv; 37-20-B03 CDR, VH1
With B2 as the binder, how does the koff [2] read?
The koff was 0.00032 s⁻¹.

And the kon [2]?
Its kon is 5.9e+06 M⁻¹ s⁻¹.

And the Kd (Fc tagged human PDL1)?
The Kd was 0.045 nM.

And the koff (Fc tagged human PDL1)?
Its koff is 0.00027 s⁻¹.

And the kon (Fc tagged human PDL1)?
Its kon is 6e+06 M⁻¹ s⁻¹.

And the “IC50 (ng/ml), NF-AT potency assay” value (human PDL1 on cells)?
Its value is 21.3 ng/mL.

And the “rel. IC50 (avelumab/test)” value (human PDL1 on cells)?
Its value is 1.6 fold.

And the IC50 (biotinylated human PDL1 [4])?
Its IC50 is 0.57 ng/mL.

What about the “rel. IC50 (IC50 avelumab/IC50 test)” value (biotinylated human PDL1 [4]) of the same binder?
The value was 3.67 fold.

And the IC50 (biotinylated human PDL1 [5])?
The IC50 was 4.05 ng/mL.

What about the “rel. IC50 (IC50 avelumab/IC50 test)” value (biotinylated human PDL1 [5]) of the same binder?
Its value is 3.68 fold.

B3: PRO830 (scFv)
scFv: DIQMTQSPSSLSASVGDRVTITCQASQSINDYLAWYQQKPGKAPKLLIYKASTLASGVPSRFSGSGSGTDFTLTISSLQPEDFATYYCQQGYIITDIDNVFGTGTKVTVLGGGGGSGGGGSGGGGSGGGGSQVQLQESGPGLVKPSETLSLTCKVSGFSFSSGYDMCWIRQPPGKGLEWIGCVVAGSVDITYYASWAKGRVTISVDSSKNQFSLKLSSVTAADTAVYYCARKDAYSDAFNLWGQGTLVTVSS
notes: anti-PDL1 scFv; also called 33-03-G02 sc01 scFv; 33-03-G02 CDR
What does the source list for B3?
koff [2]: 0.0002 s⁻¹; kon [2]: 2.2e+06 M⁻¹ s⁻¹; koff (Fc tagged human PDL1): 0.00016 s⁻¹; kon (Fc tagged human PDL1): 2.1e+06 M⁻¹ s⁻¹; IC50 (ng/ml), NF-AT potency assay (human PDL1 on cells): 42.9 ng/mL; rel. IC50 (avelumab/test) (human PDL1 on cells): 0.73 fold; IC50 (biotinylated human PDL1 [4]): 3.4 ng/mL; rel. IC50 (IC50 avelumab/IC50 test) (biotinylated human PDL1 [4]): 0.61 fold; IC50 (biotinylated human PDL1 [5]): 12.9 ng/mL; rel. IC50 (IC50 avelumab/IC50 test) (biotinylated human PDL1 [5]): 1.16 fold
